Experimental findings from publication PMC8751089, “Photobiocatalytic Oxyfunctionalization with High Reaction Rate using a Baeyer–Villiger Monooxygenase from Burkholderia xenovorans in Metabolically Engineered Cyanobacteria” (ACS Catalysis, 2021) are described below.

One data set relates to O=C1CCCCC1. Nature of the data set: purified protein. The conditions noted are these: co-substrates NADPH and O2, 50 mM Tris-HCl, pH 8, 25 °C.
The test system of another data set is T1, BVMOXeno.
T1 construct: gene BVMO_Xeno; purified enzyme, recombinant (E. coli); tag details only in supplement
Nature of the data set: steady-state kinetics, NADPH consumption. The class given is biochemical, Paraburkholderia xenovorans. The conditions noted are these: co-substrates NADPH and O2; 50 mM Tris-HCl, pH 8, 25 °C. The source says:
steady-state kinetics, NADPH consumption on BVMOXeno

As usually defined, the Km is the substrate concentration at which the rate is half of its maximum. Usually kcat stands for the number of substrate molecules converted per active site and unit of time at saturation. The term kcat/Km denotes the turnover number divided by the Michaelis constant. With CHMOAcineto (Acinetobacter johnsonii), in the data set on O=C1CCCCC1, the Km came to 266.6 ± 25.5 µM, the turnover number (kcat) came to 4.54 ± 0.095 s⁻¹ and the kcat/Km was 17000 ± 1670 M⁻¹ s⁻¹.
For `O=C1CCCCC1` [1a, cyclohexanone], the Km in the data set with BVMOXeno was found to be 22.7 ± 5 µM.
